Measured values taken from patent US20230159650A1 (SEOUL NATIONAL UNIVERSITY R AND DB FOUNDATION, published 2023).
Changes are numbered by the printed parent chain. Each block holds one binder with its values, some of them ahead of it.

Biological target: T1, human FasL where an immunoglobulin (IgG) is combined (huFasL-IgG) (human, UniProt P48023 134-281, limits assumed)
T1 construct: also called IgG-combined FasL; not shown: immunoglobulin (IgG) part
T1 sequence (looked up): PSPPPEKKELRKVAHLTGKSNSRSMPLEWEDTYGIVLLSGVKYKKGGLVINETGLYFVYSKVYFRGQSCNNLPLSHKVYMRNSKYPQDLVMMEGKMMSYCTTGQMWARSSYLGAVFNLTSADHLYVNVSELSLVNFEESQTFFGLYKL
Experiment: flow cytometry on transfected mouse cells
Description: After transfecting mutated huDR5 DNA to mouse cells and expressing each of DR5 where huDR5-CRD2 was mutated (Table 1, SEQ ID NO: 4), or DR5 where huDR5-CRD3 was mutated (Table 1, SEQ ID NO: 5), flow cytometry was performed using human FasL where an immunoglobulin (IgG) binding only to cells expressing huDR5 was combined (huFasL-IgG), and the result was shown in FIG. 8b.

- binding result: no binding
B1: DR5 where huDR5-CRD2 was mutated (Mutation huDR5-CRD2 Protein) (receptor)
chain: ITQQDLAPQQRAAPQQKRSSPSEGLCPPGHHISEDGRDCISCKYGQDYSTHWNDLLACLACTRCAAGEVELSPCTTTRNTVCQCEEGTFREEDSPEMCRKCRTGCPRGMVKVGDCTPWSDIECVHKESGIIIGVTVAAVVLIVAVFVCKSLLWKKVLPYLKGICSGGGGDPERVDRSSQRPGAEDNVLNEIVSILQPTQVPEQEMEVQEPAEPTGVNMLSPGESEHLLEPAEAERSQRRRLLVPANEGDPTETLRQCFDDFADLVPFDSWEPLMRKLGLMDNEIKVAKAEAAGHRDTLYTMLIKWVNKTGRDASVHTLLDALETLGERLAKQKIEDHLLSSGKFMYLEGNADSAMS
notes: Expressed in transfected mouse cells; also called huDR5-CRD2 mutant

- binding result: no binding
B2: DR5 where huDR5-CRD3 was mutated (Mutation huDR5-CRD3 Protein) (receptor)
chain: B1 chain with A57F, A60R, A65D, A66S, S94A, E96A, R99A, R102A
notes: Expressed in transfected mouse cells; also called huDR5-CRD3 mutant
